Laboratory results published in the DeepSol protein solubility set.

Test: soluble on expression in E. coli; label from the status in PepcDB or PDB records

Sequence	soluble on expression in E. coli
MERDRISALKRSFEVEEVETPNSTPPRRVQTPLLRATVASSTQKFQDLGVKNSEPSARHVDSLSQRSPKASLRRVELSGPKAAEPVSRRTELSIDISSKQVENAGAIGPSRFGLKRAEVLGHKTPEPAPRRTEITIVKPQESAHRRMEPPASKVPEVPTAPATDAAPKRVEIQMPKPAEAPTAPSPAQTLENSEPAPVSQLQSRLEPKPQPPVAEATPRSQEATEAAPSCVGDMADTPRDAGLKQAPASRNEKAPVDFGYVGIDSILEQMRRKAMKQGFEFNIMVVGQSGLGKSTLINTLFKSKISRKSVQPTSEERIPKTIEIKSITHDIEEKGVRMKLTVIDTPGFGDHINNENCWQPIMKFINDQYEKYLQEEVNINRKKRIPDTRVHCCLYFIPATGHSLRPLDIEFMKRLSKVVNIVPVIAKADTLTLEERVHFKQRITADLLSNGIDVYPQKEFDEDSEDRLVNEKFREMIPFAVVGSDHEYQVNGKRILGRKTKWGTIEVENTTHCEFAYLRDLLIRTHMQNIKDITSSIHFEAYRVKRLNEGSSAMANGVEEKEPEAPEM	not soluble
MEMNRRRSRGFMIAKLMPFCKAVKSPTPSQDLYNNVHYTSSTTTSYARQPDFNNYVTATTPLPPKVSFLLQPSLAPEGKDMEKKLNMMAEKLIGRGINGVDDCVDARAASYISSVRERFKADQYCEKLTTVISLDDEN	soluble
MGSDKIHHHHHHMTQYIYLHGFASSPQSAKAQDIRQRFAQIHTQLTIPDLNAGEFSQLTITRQIQQIAATFPDDSVPITLIGSSLGGLTAAHLGQRYLQVQRLVLLAPAFGFLSHWLPKMGEGAVQSWQQNGYYPVYHYGEGTSLPLSYNFVTDAAQYQEDHIQRPIPTLILHGKHDEVIPITASRDFAHSRPWVELIELDSNHALGNVMEEIWQAISLFCQLPESGKI	not soluble
MRIQIGELIRSGVLELGDGYRTKRSELSQFGYAIVRAGDVVEIGVTASDSEFVDQRFDKAIGRKTVRLGDVVITTKGTVGRVAEVSKVPNAGLAVYSPQVCYLRSLQPSILHQRYLKYLLMSPATKYSISTFASSSDMAPYLSLSDFKSMVVDLPSLEDQRAIADVLGALDDKIAENQRVIQLSEQLAMTFYRSTEKSESSLTFADVAGIYGGGTPSTKNPDFWDGEIRWATPTDITALKGPWLCGTARSITEEGLSKSSGSLHPEGSILMTSRATVGHVAFIDAPTTTNQGFINLVPQEAYRYWLYFQLKQRTSEFIAWANGATFLELSRGTFKKLPFQACAETELEKFNSVVAPLMKRVLKAQKENQVLAATRDELLPLLMNGKITVAEAKEAAGDVGVVKQNQQEEGDSSV	not soluble
VYRTPRTCSPHFPAGPARVINPGLHELHASAGDERDAPIGINFRSPRMRMAGEFVPDSGACDAAHGGSAAPTRKAGMRIGGAAAGKVE	not soluble
ISGFYMSIMRDITEKRSMELQLFKSEERFREIFENAMDAIIIWSNDGRIVKANQSACKIFELPMNLLLKRKLCDFLVDSQQKYSITKRKYAKYGEIREELLFQMGNGQFKELEFTSKRTILEN	not soluble
MRKFIISFCCYVFFIFTLAAQDKAPHYTVIVSLDAFRWDYPAMYDTPNLNQMAREGVKATMLPSYPASTFPNHYTLATGLVPDHNGIINNTFWDVKRRRQYSMGDPATRNNPDYYLGEPIWITAQKQGVKTGNVYWVGSDIAIKGGYPTYYREYAEKPRLTFEQRVDSTIALLEKPEAERPRLVMLYFEEPDGVTHHHGPRSVEAAAIIHRMDSLVGMLRQGIASLPFGKDVNLIVTADHGMTEISDDRVVDMNKYLRPEWCEAVDGRTPTSIFTKPEYRDSVYNALKDVPHIHVWKKEEIPAELNYGSSDRIGDIVVAPELGWQFTDVPRALKGAHGYFPQSPDMQVMFRACGPDFKAGYESKGFVNVDIYPLLAHLLKITPEKTDGQFERIKDILKDVSFLEHHHHHH	not soluble
MAHHHHHHMSARKFAGEYVSRHLDGLTVLASLADRPAAAKPVICTHNGSFHCDEAMACGLLRHVPEYREAVILRTRDPKQIDACDIVVDVGAIYDADTNRYDHHQASFHGTMTTPKKAYKTRLSSAGLVYKHFGRQIICEYVEAVLQPSSPARAAVLSMTSWSESRTGLSEAELDVLEDALYAHFVEQVDGIDNGVECWGLADPAVGTLVPNYTQSTSLSQRIGQLQAYWNEPENGDVVAENANFAVAVEMAVTEFFKALTYLSFSWLPARSIVEAAFQRRHEFDESGKIMVFKGVKACPWKDHLLELEAESNCLGAVLYVVFSDGKGWRVQAVPKTSTSFENRKPLPYRGLRDDALSAACGIEGGVFVHVSGFIGGMKTFDGAMALAKQALVVVN	soluble
MLNVEPSFAEELRSSGVSLSATYLGSVPVVESINVMVSEMRVQVVSECIQHVAATVGVTAAREINPVVSRVIGEVKKENFPVDINISSKMIKIIKQSRLIQRHPFSFFSFGAQGQKGTDTELMFGYIAKNKDGTDRRCHVVFIEDVHKLIDVLTTAINVNTFDAQANASTSNDGFTVPAPPMRHRSSLHRQSFVSNCRAPTVTEDVVGKVWYHGNLSREDAQALLKTEGDFLVRQSDHTPGKYVLSGRTAENEHKHLILLDNHNRVRTRDRTFSNISELIDYHVNNGMAVRSEGRDRETSLNLIRPVPCPGSDDIE	soluble
MALNLKQRLEQKFEEEIRFFKGMVSQPKKVGAIVPTSSITAKKMASVINPHSGLPVLELGPGTGVITKAILARGIKPESLTAIEYSTDFYNQLLRSYPGVNFVNGDAFDLDATLGEHKGQMFDSVISAVPMLNFPMAARIKLLDELLKRVPHGRPVVQISYGPISPIVAQPHLYHIRHFDFIVRNIPPAQLWTYTRALEHHHHHH	not soluble
MHDVMELRNLSMVDLQTFNTQFSKITDRYWREIFRRQNDSHHPDHINVSRLQTANIITVLDENLPQGAIQELTITGLIPKPFSSRRCEVMRYLRERLSCSPDVELSFQGDQLRITNPTLNLENVPVLSMEKH	not soluble
MSLTELLNNQDYRKEALKEIIRELHRGKSVEEVKARFNELIKDVAPAEISLMEQALINEGLPVEEVQRLCDVHAAVFKESLERAPQPETIPGHPVHTFKEENRALEDLMIREIQPLLAELRRANPDVEKDLAIKLAEKLNLLQDVNKHYSRKENLLFPYLEKYQIVGPPKVMWGVDDEIRDLLKEARDLAVNYVPDKKEELITRTEAALAKIKEMIFKEERILFPMALETLTEDEWYRIMLDSASIGYCLIEPREDWRPAQVKLDQKETVASEETRGYIKFATGILTPREISLIFDHLPVDITFVDKDNVVKYFSNTRERIFTRSRAVIGRRVENCHPPASVQVVEKLIADFKSGRKDREAFWLHLGDKYVFIQYFAVRDEKGDFAGTLEVTMDLKPLQAISGEKRIMDEGHHHHHH	soluble
MGSDKIHHHHHHMRLRELELFLDLLATKSLTQSAERLGMSQPNASHLLSKLEEKGGSKLFDRSGKRLLPLSSALFLEPRAKEIVRLWREAQEELLDQSSLCGELRIAATHTIGEYLLPEILFEFRQTHPKVHLQARIHNTAECLEALLGGEVEQAFIEGETEDNQGVMKRFLRRDELAVVTSDEGLAARARYIDELFDRPWILREKGSGMRDAFLREVVDVKESFPLFLELDRSEAIKRLIQSHGALGCLSLLSVQREIKEGRLFRVEIIGREFWRHFYEVRREGSLGRLAKVFGEFVSVRLSESD	not soluble
MGHHHHHHSHKNVVHQLSVTLEDLYNGATRKLALQKNVICDKCEGRGGKKGAVECCPNCRGTGMQIRIHQIGPGMVQQIQSVCMECQGHGERISPKDRCKSCNGRKIVREKKILEVHIDKGMKDGQKITFHGEGDQEPGLEPGDIIIVLDQKDHAVFT	not soluble
MGSDKIHHHHHHMLKLKKILADLHVEQAELAEQMAYSQATISQLVNHSVWPKRAARWGLRERILKFLKERGANDDQVATAFEEWTPTRGNASESGSHTPTGGTEDEAMSIRKQILHPNTRRHFKLPGDPFEEVASAEEFYQNEHIRFTRAAMLDAAKRGGFLAVVGESGSGKTTMRRDLQERIERESIQVQVIRPYVVAMEDNDDKGKTLKATHIAEAIMAAVAPHEVLKTSSEARFRQVEKALKESYRTGMRHVVLIEEAHAMPLATLRHLKRFIELEDGFTRLLSVILIGQTELAIKLNPKNATVREVVQRCELITLPPLGQYLEDYLKFRFARLGVQLDQMVTLDGVQAIRSRLQPEAPRGHEERSFLYPLAVHNLLTAAMNLAAENGAPAVSADIVMEAKWN	not soluble
